According to PMC7490560 (2020):

Experiments:
FOSB = molecular target: T1, FOSB (Homo sapiens, UniProt P53539); experiment: DULIP (scaled)
T1 chain: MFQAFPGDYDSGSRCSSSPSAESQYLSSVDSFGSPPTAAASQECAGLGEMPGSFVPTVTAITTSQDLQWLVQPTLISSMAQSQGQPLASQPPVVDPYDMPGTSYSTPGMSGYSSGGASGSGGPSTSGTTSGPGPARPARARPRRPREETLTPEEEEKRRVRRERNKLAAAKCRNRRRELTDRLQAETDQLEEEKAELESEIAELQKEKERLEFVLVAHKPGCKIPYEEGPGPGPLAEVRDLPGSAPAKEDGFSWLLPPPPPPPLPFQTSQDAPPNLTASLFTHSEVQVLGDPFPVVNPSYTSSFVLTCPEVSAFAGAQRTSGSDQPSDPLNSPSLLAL

DDIT3 = molecular target: T2, DDIT3 (Homo sapiens, UniProt P35638); experiment: DULIP (scaled)
T2 chain: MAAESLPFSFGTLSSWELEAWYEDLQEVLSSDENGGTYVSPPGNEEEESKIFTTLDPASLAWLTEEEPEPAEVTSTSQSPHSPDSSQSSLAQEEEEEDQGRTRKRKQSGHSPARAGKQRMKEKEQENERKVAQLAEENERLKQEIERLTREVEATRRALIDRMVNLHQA

FOSL2 [1] = molecular target: T3, FOSL2 (Homo sapiens, UniProt P15408); experiment: DULIP (scaled)
T3 chain: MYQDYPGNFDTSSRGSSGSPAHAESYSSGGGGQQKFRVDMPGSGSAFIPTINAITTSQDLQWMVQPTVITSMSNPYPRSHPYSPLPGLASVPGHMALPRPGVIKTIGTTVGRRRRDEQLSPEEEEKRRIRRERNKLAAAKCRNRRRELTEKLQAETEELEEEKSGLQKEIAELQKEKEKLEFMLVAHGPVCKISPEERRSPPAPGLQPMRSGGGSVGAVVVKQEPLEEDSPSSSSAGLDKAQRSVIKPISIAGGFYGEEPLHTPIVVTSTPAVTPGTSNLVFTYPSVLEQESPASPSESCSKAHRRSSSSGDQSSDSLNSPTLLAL

ELF3 [2] = molecular target: T4, ELF3 (Homo sapiens, UniProt P78545); experiment: DULIP (scaled)
T4 chain: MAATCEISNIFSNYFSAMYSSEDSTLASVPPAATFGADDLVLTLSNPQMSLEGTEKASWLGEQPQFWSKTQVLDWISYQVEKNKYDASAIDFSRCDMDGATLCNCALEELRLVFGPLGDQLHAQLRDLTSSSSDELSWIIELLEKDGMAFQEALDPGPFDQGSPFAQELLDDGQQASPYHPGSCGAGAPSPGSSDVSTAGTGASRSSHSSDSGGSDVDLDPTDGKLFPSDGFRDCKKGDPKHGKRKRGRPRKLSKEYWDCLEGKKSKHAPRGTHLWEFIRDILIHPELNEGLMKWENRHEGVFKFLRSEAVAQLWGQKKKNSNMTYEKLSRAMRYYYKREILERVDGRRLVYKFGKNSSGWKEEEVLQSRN

MAP2K6 = molecular target: T5, MAP2K6 (Homo sapiens, UniProt P52564); experiment: DULIP (scaled)
T5 chain: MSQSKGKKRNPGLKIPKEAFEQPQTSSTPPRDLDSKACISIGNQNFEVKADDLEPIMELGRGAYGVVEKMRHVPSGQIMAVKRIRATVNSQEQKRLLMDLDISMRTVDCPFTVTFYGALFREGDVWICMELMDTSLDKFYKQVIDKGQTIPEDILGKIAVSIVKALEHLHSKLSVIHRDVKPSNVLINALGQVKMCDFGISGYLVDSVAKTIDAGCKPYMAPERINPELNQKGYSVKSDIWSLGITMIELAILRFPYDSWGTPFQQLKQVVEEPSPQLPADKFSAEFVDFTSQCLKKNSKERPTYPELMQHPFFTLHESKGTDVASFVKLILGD

CEBPG [3] = molecular target: T6, CEBPG (Homo sapiens, UniProt P53567); experiment: DULIP (scaled)
T6 chain: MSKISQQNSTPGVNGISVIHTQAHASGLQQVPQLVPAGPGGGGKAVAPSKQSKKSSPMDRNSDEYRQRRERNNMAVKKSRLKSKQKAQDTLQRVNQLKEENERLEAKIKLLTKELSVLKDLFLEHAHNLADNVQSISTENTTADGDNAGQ

FOSL2 [4] = molecular target: T3, FOSL2; experiment: FCCS (live HEK293T cells)
ELF3 [5] = molecular target: T4, ELF3; experiment: FCCS (live HEK293T cells)
CEBPG [6] = molecular target: T6, CEBPG; experiment: FCCS (live HEK293T cells)
EIF3J = EIF3J (Homo sapiens, UniProt O75822); experiment: FCCS (live HEK293T cells)
EIF3J, sequence (O75822 2-258): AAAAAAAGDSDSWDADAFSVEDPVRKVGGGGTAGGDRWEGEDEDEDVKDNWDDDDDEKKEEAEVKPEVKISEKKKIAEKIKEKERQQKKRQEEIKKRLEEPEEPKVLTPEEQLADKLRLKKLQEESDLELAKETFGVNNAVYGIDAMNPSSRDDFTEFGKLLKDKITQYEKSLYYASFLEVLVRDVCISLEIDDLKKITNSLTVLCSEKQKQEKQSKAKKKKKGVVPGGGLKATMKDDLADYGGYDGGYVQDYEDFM

CREBL2 = molecular target: T7, CREBL2 (Homo sapiens, UniProt O60519); experiment: FCCS (live HEK293T cells)
T7 chain: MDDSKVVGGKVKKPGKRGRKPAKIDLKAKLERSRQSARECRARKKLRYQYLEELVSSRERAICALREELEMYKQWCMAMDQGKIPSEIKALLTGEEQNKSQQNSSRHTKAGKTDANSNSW

Kd (FOSB): > 9 µM
Kd (DDIT3): > 9 µM
Kd (FOSL2 [1]): > 9 µM
Kd (ELF3 [2]): > 9 µM
Kd (MAP2K6): > 9 µM
Kd (CEBPG [3]): > 9 µM
Kd (FOSL2 [4]): > 10 µM
Kd (ELF3 [5]): > 10 µM
Kd (CEBPG [6]): > 10 µM
Kd (EIF3J): > 10 µM
Kd (CREBL2): > 10 µM
B1: NRF2 (protein)
chain: MMDLELPPPGLPSQQDMDLIDILWRQDIDLGVSREVFDFSQRRKEYELEKQKKLEKERQEQLQKEQEKAFFAQLQLDEETGEFLPIQPAQHIQSETSGSANYSQVAHIPKSDALYFDDCMQLLAQTFPFVDDNEVSSATFQSLVPDIPGHIESPVFIATNQAQSPETSVAQVAPVDLDGMQQDIEQVWEELLSIPELQCLNIENDKLVETTMVPSPEAKLTEVDNYHFYSSIPSMEKEVGNCSPHFLNAFEDSFSSILSTEDPNQLTVNSLNSDATVNTDFGDEFYSAFIAEPSISNSMPSPATLSHSLSELLNGPIDVSDLSLCKAFNQNHPESTAEFNDSDSGISLNTSPSVASPEHSVESSSYGDTLLGLSDSEVEELDSAPGSVKQNGPKTPVHSSGDMVQPLSPSQGQSTHVHDAQCENTPEKELPVSPGHRKTPFTKDKHSSRLEAHLTRDELRAKALHIPFPVEKIINLPVVDFNEMMSKEQFNEAQLALIRDIRRRGKNKVAAQNCRKRKLENIVELEQDLDHLKDEKEKLLKEKGENDKSLHLLKKQLSTLYLEVFSMLRDEDGKPYSPSEYSLQQTRDGNVFLVPKSKKPDVKKN
